Changes are numbered by the printed parent chain. Numbers in names are those of the source.

Common to all, as to assay: SPR (Biacore); KD of H240-Kn033/H240-Hl033/L73-k0 divided by KD of the variant
(Surface plasmon resonance follows binding to a sensor surface in real time, without labels.)

The target in one assay is T1, FcgRIIaH (human, UniProt P12318 34-217).
T1 construct: extracellular domain; also called FcγRIIa H; FcγRIIa type H; not shown: His tag at the C terminus
T1 sequence (looked up): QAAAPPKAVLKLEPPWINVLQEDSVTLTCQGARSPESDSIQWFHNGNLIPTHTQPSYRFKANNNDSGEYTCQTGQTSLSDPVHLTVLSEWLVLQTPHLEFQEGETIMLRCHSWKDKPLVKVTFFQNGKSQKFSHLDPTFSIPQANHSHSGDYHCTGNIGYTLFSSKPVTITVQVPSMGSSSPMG
The procedure:
(§1) Next, the amino acid at position 330 was examined. The A330M alteration has been introduced into H240-Hl076 of H240-Kn125/H240-Hl076/L73-k0. […] L73-k0 was used as the common antibody L chain. Binding of the produced variants to FcgRIa, FcgRIIaR, FcgRIIaH, FcgRIIb, FcgRIIIaF, and FcgRIIIaV was measured according to the method of Reference Example 8.
(§2) Analysis of interaction between objective antibody and the FcγR was carried out using Biacore T100 (GE Healthcare), Biacore T200, Biacore A100, and Biacore 4000. HBS-EP+ (GE Healthcare) was used as the running buffer, and the measurement temperature was set to 25° C. Chips produced by immobilizing the antigen peptide by the amine coupling method to a Series S sensor Chip CM5 (GE Healthcare), chips produced by allowing preliminarily biotinylated antigen peptides to interact with and immobilize onto a Series S Sensor Chip SA (certified) (GE Healthcare), chips produced by immobilizing Protein L (ACTIGEN, BioVision) to Series S Sencor Chip CM5 (GE Healthcare), or chips produced by immobilizing Protein A/G (Thermo Scientific) to Series S Sencor Chip CM5 (GE Healthcare) were used. Antibodies of interest were captured onto these chips, and allowed to interact to each FcγR diluted with running buffer. To regenerate and repeatedly use the chip, the antibodies captured onto the chip were washed off by reacting 10 mM glycine-HCl, pH 1.5.

A further assay has as its target T2, FcgRIIIaV (human, UniProt P08637 17-208).
T2 construct: extracellular domain; Polymorphic site after J. Clin. Invest; also called FcγRIIIa V; 3aV; not shown: His tag at the C terminus
Here is the method: as §1, §2

The next assay concerns the target T3, FcgRIIIaF (human, UniProt P08637 17-208).
T3 construct: extracellular domain; Polymorphic site after J. Clin. Invest; also called FcγRIIIa F; 3aF; not shown: His tag at the C terminus
Here is the method: as §1, §2

The target of a further assay is T4, FcgRIIb (human, UniProt P31994 43-217).
T4 construct: extracellular domain; also called FcγRIIb; 2b; not shown: His tag at the C terminus
T4 sequence (looked up): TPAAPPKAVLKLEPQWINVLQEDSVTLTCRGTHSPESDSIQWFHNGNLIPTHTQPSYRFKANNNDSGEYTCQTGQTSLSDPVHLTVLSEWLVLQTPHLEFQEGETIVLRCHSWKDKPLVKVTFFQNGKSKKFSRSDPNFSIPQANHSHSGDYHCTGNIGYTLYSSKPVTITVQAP
The procedure:
as §1, §2

A further assay concerns the target T5, FcgRIIaR (human, UniProt P12318 34-217).
T5 construct: extracellular domain; also called FcγRIIa R; FcγRIIa type R; not shown: His tag at the C terminus
T5 sequence (looked up): T1 sequence (looked up) with H134R
Here is the method: as §1, §2

T3 sequence (P08637 17-208): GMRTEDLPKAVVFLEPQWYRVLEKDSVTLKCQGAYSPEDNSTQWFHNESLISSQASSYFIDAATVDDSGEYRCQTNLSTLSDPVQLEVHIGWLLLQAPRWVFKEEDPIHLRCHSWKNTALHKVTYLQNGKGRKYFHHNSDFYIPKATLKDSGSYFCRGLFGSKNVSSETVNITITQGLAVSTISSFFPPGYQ
T2 sequence (P08637 17-208 F176V limits assumed): as the sequence (P08637 17-208) above, with F160V counted along it

B1: H240-Kn033/H240-Hl033/L73-k0 (antibody, human IgG1, kappa)
heavy 1: not shown
heavy 2: not shown
light: DIQMTQSPSSLSASVGDRVTITCRASQDIHKYIAWYQQKPGQAPRLLIQYTSTLQPGVPSRFSGSGSGTDYTFTISSLQPEDIATYYCLQYEQLRTFGGGTKVEIKRTVAAPSVFIFPPSDEQLKSGTASVVCLLNNFYPREAKVQWKVDNALQSGNSQESVTEQDSKDSTYSLSSTLTLSKADYEKHKVYACEVTHQGLSSPVTKSFNRGEC
notes: Anti-epiregulin IgG1 with knobs-into-holes alterations only
As to B1, in the assay with FcgRIIaH, the “fold 2aH” value came to 1 fold. Also, the “fold 3aV” value with FcgRIIIaV worked out at 1 fold. For the same molecule, the “fold 3aF” value with FcgRIIIaF was 1 fold. The “fold 2b” value with FcgRIIb worked out at 1 fold. Moreover, the “fold 2aR” value with FcgRIIaR was 1 fold.

B2: H240-afucosyl_G1d/L73-k0 (antibody, human IgG1, kappa)
heavy: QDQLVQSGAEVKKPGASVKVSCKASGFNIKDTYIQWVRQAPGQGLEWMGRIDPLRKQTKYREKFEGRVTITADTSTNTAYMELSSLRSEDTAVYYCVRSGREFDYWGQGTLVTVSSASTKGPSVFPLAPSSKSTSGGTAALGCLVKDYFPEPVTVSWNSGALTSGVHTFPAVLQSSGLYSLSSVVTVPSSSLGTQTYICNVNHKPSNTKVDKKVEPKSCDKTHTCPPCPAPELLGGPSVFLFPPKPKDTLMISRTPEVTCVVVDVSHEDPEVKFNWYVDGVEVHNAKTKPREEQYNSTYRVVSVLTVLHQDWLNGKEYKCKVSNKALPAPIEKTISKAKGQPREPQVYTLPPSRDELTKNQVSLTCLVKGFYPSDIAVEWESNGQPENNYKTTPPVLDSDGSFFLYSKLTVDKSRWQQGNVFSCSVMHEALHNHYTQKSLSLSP
light: B1 light
modifications: fucose removed from the N-linked sugar chain (afucosylated)
notes: also called afucosylated antibody
As for B2, in the assay with FcgRIIaH, the “fold 2aH” value is 0.7 fold. The “fold 3aV” value with FcgRIIIaV worked out at 7 fold. Besides, in the assay with FcgRIIIaF, the “fold 3aF” value amounted to 3.7 fold. Moreover, in the assay with FcgRIIb, the “fold 2b” value turned out to be 1.3 fold. Moreover, the “fold 2aR” value in the assay with FcgRIIaR came to 1.5 fold.

B3: H240-Kn204/H240-Hl211/L73-k0 (antibody, human IgG1, kappa)
heavy 1: QDQLVQSGAEVKKPGASVKVSCKASGFNIKDTYIQWVRQAPGQGLEWMGRIDPLRKQTKYREKFEGRVTITADTSTNTAYMELSSLRSEDTAVYYCVRSGREFDYWGQGTLVTVSSASTKGPSVFPLAPSSKSTSGGTAALGCLVKDYFPEPVTVSWNSGALTSGVHTFPAVLQSSGLYSLSSVVTVPSSSLGTQTYICNVNHKPSNTKVDKKVEPKSCDKTHTCPPCPAPEYLGGPSVFLFPPKPKDTLMISRTPEVTCVVVDVSHEDPEVKFNWYVDGVEVHNAKTYPREEQWNSTYRVVSVLTVLHQDWLNGKEYKCKVSNKALPAPIEKTISKAKGQPREPQVCTLPPSRDELTKNQVSLWCLVKGFYPSDIAVEWESNGQPENNYKTTPPVLDSDGSFFLYSKLTVDKSRWQQGNVFSCSVMHEALHNHYTQKSLSLSP
heavy 2: QDQLVQSGAEVKKPGASVKVSCKASGFNIKDTYIQWVRQAPGQGLEWMGRIDPLRKQTKYREKFEGRVTITADTSTNTAYMELSSLRSEDTAVYYCVRSGREFDYWGQGTLVTVSSASTKGPSVFPLAPSSKSTSGGTAALGCLVKDYFPEPVTVSWNSGALTSGVHTFPAVLQSSGLYSLSSVVTVPSSSLGTQTYICNVNHKPSNTKVDKKVEPKSCDKTHTCPPCPAPELLGGPDVFLFPPKPKDTLMISRTPEVTCVVVDVSHEDPEVKFNWYVDGVEVHNAKTKPREEQYNSTYRVVSVLTVLHQDWLNGKEYKCKVSNKALPMPIEVTISKAKGQPREPQVYTLPPSRCELTKNQVSLSCAVKGFYPSDIAVEWESNGQPENNYKTTPPVLDSDGSFFLVSKLTVDKSRWQQGNVFSCSVMHEALHNHYTQKSLSLSP
light: B1 light
As for B3, in the assay with FcgRIIaH, the “fold 2aH” value turned out to be 0.7 fold. In addition, in the assay with FcgRIIIaV, the “fold 3aV” value came out at 6.5 fold. Moreover, the “fold 3aF” value with FcgRIIIaF worked out at 20.7 fold. Further, the “fold 2b” value in the assay with FcgRIIb was determined as 2.5 fold. In addition, the “fold 2aR” value with FcgRIIaR is 1.2 fold.

B4: H240-Kn032/H240-Hl032/L73-k0 (antibody, human IgG1, kappa)
heavy 1: B3 heavy 1 with Y233L, S238D, Y289K, W295Y, A329L, I331E
heavy 2: B3 heavy 2 with M329L, I331E, V333K
light: B1 light
notes: S239D/A330L/I332E in both H chains
As to B4, the “fold 2aH” value in the assay with FcgRIIaH is 0.8 fold. For the same molecule, the “fold 3aV” value with FcgRIIIaV came to 15.5 fold. In the assay with FcgRIIIaF, the “fold 3aF” value was found to be 31.9 fold. In addition, the “fold 2b” value with FcgRIIb was determined as 5.3 fold. In addition, in the assay with FcgRIIaR, the “fold 2aR” value is 2.2 fold.

B5: H240-Kn037/H240-Hl036/L73-k0 (antibody, human IgG1, kappa)
heavy 1: B3 heavy 1 with Y233L, G235A, S238D, Y289K, W295Y, I331E
heavy 2: B3 heavy 2 with G235A, M329A, I331E, V333K
light: B1 light
notes: It says both H chains have G236A/S239D/I332E
Take B5: the “fold 2aH” value in the assay with FcgRIIaH worked out at 11.3 fold. Further, the “fold 3aV” value with FcgRIIIaV stood at 7.1 fold. Besides, in the assay with FcgRIIIaF, the “fold 3aF” value stood at 13.8 fold. The “fold 2b” value with FcgRIIb was determined as 8.7 fold. Moreover, in the assay with FcgRIIaR, the “fold 2aR” value stood at 25.5 fold.

B6: H240-Kn205/H240-Hl212/L73-k0 (antibody, human IgG1, kappa)
heavy 1: B3 heavy 1 with Y289K, S297C
heavy 2: B3 heavy 2 with M329A
light: B1 light
On to B6, for which the “fold 2aH” value with FcgRIIaH was 1.4 fold. In the assay with FcgRIIIaV, the “fold 3aV” value stood at 11.4 fold. Also, the “fold 3aF” value with FcgRIIIaF turned out to be 24.2 fold. Moreover, the “fold 2b” value in the assay with FcgRIIb was 2.1 fold. In the assay with FcgRIIaR, the “fold 2aR” value was 1.2 fold.
